Substrate in series [1]: CC(C)[C@H](NC[C@@]1(O)OC[C@@H](O)[C@@H](O)[C@@H]1O)C(=O)O
In words: glucosone release, o-phenylenediamine, A322, Lineweaver-Burk fit. The format is biochemical, Parastagonospora nodorum. The conditions noted are these: 20 mM Tris HCl pH 7.4, 25 °C, 20 mM o-phenylenediamine, substrate 0.05-10 mM. From the text: glucosone release, o-phenylenediamine, A322, Lineweaver-Burk fit on PnFPOX (WT)

In series [2] the target is Phaeosphaeria nodorum fructosyl peptide oxidase (PnFPOX), wild type (Phaeosphaeria nodorum).
Series [3] concerns the target X02C variant of PnFPOX (derived from L3-35A through X02A) (Phaeosphaeria nodorum).

We go through two molecules from article PMC10616090, “Tailoring FPOX enzymes for enhanced stability and expanded substrate recognition” (Scientific Reports, 2023).

Where no end group is shown, it is not given here.

B1: PnFPOX (WT) (Parastagonospora nodorum SN15) (protein)
chain: MAPSRANTSVIVVGGGGTIGSSTALHLVRSGYTPSNVTVLDAYPIPSSQSAGNDLNKIMGVSLRNPVDLQLALEARQMWNEDELFKKFFHNTGRLDCAHGEKDIADLKSGYQALVDAGLDATNEWLDSEDEILKRMPLLSRDQIKGWKAIFSKDGGWLAAAKAINAVGEYLRDQGVRFGFYGAGSFKAPLLAEGVCIGVETVDGTRYYADKVVLAAGAWSPTLVELHEQCVSKAWVYGHIQLTPEEAARYKNSPVVYNGDVGFFFEPNEHGVIKVCDEFPGFTRFKMHQPFGAKAPKRISVPRSHAKHPTDTIPDASDVSIRRAIATFMPQFKNKKMFNQAMCWCTDTADAALLICEHPEWKNFVLATGDSGHSFKLLPNIGKHVVELLEGTLADDLAHAWRWRPGSGDALKSRRSAPAKDLADMPGWNHDKPRANL
notes: C-terminal 6His tag (kept), recombinant in E. coli BL21 Star (DE3); pET15b or pET17b; FAD enzyme
Consider B1, for which, in series [1], the Km worked out at 5930 ± 1610 µM, the Vmax was determined as 41700 µM/min, the kcat was 99.3 ± 19.9 s⁻¹ and the kcat/Km came out at 16800 M⁻¹ s⁻¹.

Regarding {1‑deoxyfructosyl}-VHLTPE [fructosyl-Val-His-Leu-Thr-Pro-Glu hexapeptide (F6P)], the Km for F6P in the enzymatic activity assay (glucosone release at 322 nm, F6P 0.05 to 1 mM, Lineweaver-Burk fit) in series [2] came to 810 µM; in series [3] it was 30 µM.
